Measurements published in PMC5158082 (PLoS Pathogens, 2016).

Tests used:
native MS = molecular target: the molecule itself; assay: native MS
SpaR^STREP = molecular target: T1, SpaR^STREP (Salmonella enterica serovar Typhimurium, UniProt P40701 1-263); assay: native MS; conditions: both partners purified
T1 construct: also called SpaR^STREP of the SpaPR^STREP complex
T1 sequence: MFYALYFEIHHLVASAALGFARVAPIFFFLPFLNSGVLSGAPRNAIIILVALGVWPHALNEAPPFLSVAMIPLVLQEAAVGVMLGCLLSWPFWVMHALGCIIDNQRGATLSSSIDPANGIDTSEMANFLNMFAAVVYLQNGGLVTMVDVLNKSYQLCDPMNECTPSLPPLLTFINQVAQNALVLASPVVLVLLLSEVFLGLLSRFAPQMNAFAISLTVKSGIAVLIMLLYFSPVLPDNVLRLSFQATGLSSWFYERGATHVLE

B1: SpaP (untagged, co-expressed in E. coli) (natural protein)
chain: MGNDISLIALLAFSTLLPFIIASGTCFVKFSIVFVMVRNALGLQQIPSNMTLNGVALLLSMFVMWPIMHDAYVYFEDEDVTFNDISSLSKHVDEGLDGYRDYLIKYSDRELVQFFENAQLKRQYGEETETVKRDKDEIEKPSIFALLPAYALSEIKSAFKIGFYLYLPFVVVDLVVSSVLLALGMMMMSPVTISTPIKLVLFVALDGWTLLSKGLILQYMDIAT
notes: also called SpaP of the SpaPR complex; SpaP5R1
Q: B1 was tested. Which “stoichiometry N” value (native MS) did it give?
A: The value was 5.

Q: And the “stoichiometry N” value (SpaR^STREP)?
A: Its value is 5 SpaP per SpaR^STREP.
